According to patent US6858707B1, “Hypersensitive response elicitor fragments which are active but do not elicit a hypersensitive response” (EDEN Bioscience Corporation, priority 1998, dated 2005):
Values joined by “and” are separate entries in the source; they are usually repeats but may differ in a detail not shown here. Equal entries are not always repeated.

Tests used:
[1] = system: tobacco (Nicotiana tabacum v. Xanthi) leaves; assay: Induction of HR in tobacco by hrpN truncated proteins; format: in vivo; conditions: for HR titer: large scale purified protein, concentration down to which HR is elicited in tobacco, — = no HR; for HR elicitation in tobacco (in words): Example 12
Description: A 1.5 ml aliquot from the 50 ml cultures grown for small scale purification of the truncated proteins was centrifuged at 14,000 rpm for four minutes and re-suspended in an equal volume of 5 mM potassium phosphate buffer, pH 6.8. The cell suspension was sonicated for ca. 30 seconds then diluted 1:2 and 1:10 with phosphate buffer. Both dilutions plus the neat cell lysate were infiltrated into the fourth to ninth leaves of 10-15 leaf tobacco plants by making a hole in single leaf panes and infiltrating the bacterial lysate into the intercellular leaf space using a syringe without a needle. The HR response was recorded 24-48 hr post infiltration. Tobacco (Nicotiana tabacum v. Xanthi) seedlings were grown in an environmental chamber at 20-25° C. with a photoperiod of 12-h light/12-h dark and ca. 40% RH. Cell lysate was used for the initial HR assays (in order to screen the truncated proteins for HR activity) as the small scale urea purification yielded very little protein which was denatured due to the purification process.
The full length positive control protein elicited HR down to only 5-7 μg/ml. […] This false HR was likely due to an affinity of the imidazole used in the purification process to bind to one or several of the background proteins, thereby not completely dialyzing out.

[2] = system: tomato (Lycopersicon spp. cv. Marglobe); assay: Induction of growth enhancement (GE/PGE), tomato seed soak; format: in vivo; conditions: for PGE ht>buffer @20 μg/ml: tomato seeds soaked overnight at 20 μg/ml; for PGE ht>buffer @20 μg/ml / PGE ht>buffer @ 40 μg/ml / PGE ht>buffer @10 μg/ml: height vs buffer control; for PGE ht>buffer @20 μg/ml / PGE ht>buffer @10 μg/ml: >10% needed to pass; for PGE ht>buffer @10 μg/ml: tomato seeds soaked overnight at 10 μg/ml
Description: Sixty tomato (Lycopersicon spp. cv. […] The next morning, the sixty seeds were sewn in three pots and 12-15 days later and again 18-20 days later the heights of the 10 tallest tomato plants per pot were measured and compared with the heights of the control plants treated only with phosphate buffer. Analyses were done on the heights to determine if there was a significant difference in the height of the plants treated with the truncated proteins compared with the buffer control, and thereby determine whether the proteins induced growth enhancement.

TMV = assay: Induction of systemic acquired resistance (SAR), TMV lesions on tobacco; format: in vivo, Nicotiana tabacum; conditions: tobacco sprayed with 20 μg/ml, reduction in TMV lesions vs buffer control
Description: Three tobacco (Nicotiana tabacum cv. Xanthi) plants with 8-12 leaves (ca. 75 day old plants) were used in the assay. One leaf of the tobacco plants was covered up and the rest of the leaves were sprayed with ca. 50 ml of a 20 μg/ml solution of the truncated proteins diluted with 5 mM potassium phosphate buffer. Five to seven days later two leaves (the unsprayed leaf and the sprayed leaf opposite and just above the unsprayed leaf) were inoculated with 20 μl of a 1.8 μg/ml solution of TMV along with a pinch of diatomaceous earth by rubbing the mixture along the top surface of the leaves. The TMV entered the plants through tiny lesions made by the diatomaceous earth. Ca. 3-4 days post TMV inolucation, the number of TMV lesions was counted on both leaves compared with the number of lesions on the negative control buffer treated leaves. Analyses were done to determine the efficacy of reducing the number of TWV lesions by the protein fragents compared to the buffer control. Percentage of efficacy was calculated as: Reduction in TMV lesions (% efficacy)=100×(1−mean # of lesions on treated leaves/mean # of lesions on buffer control leaves).

Question: What does the source list for “Fragment 20: amino acids 137-180 of SEQ ID NO: 23, smallest HR domain (STSQNDDSTSGTDSTSDSSDPMQQLLKMFSEIMQSLFGDGQDGT; listed as Erwinia amylovora)”?
Answer: HR titer [1]: 16 µg/mL; PGE ht>buffer @20 μg/ml [2]: 9%; Efficacy of TMV control (TMV; listed as 20): 64% and 58%

Question: With `c1c[nH]cn1` [Imidazole] as the molecule, how does the “false HR response” value ([1]; imidazole at ca. 60 mM) read?
Answer: Its value is “did elicit a false HR response”.

B1: Fragment 6: amino acids 267-403 of SEQ ID NO: 23, C-terminal fragment (protein, listed as Erwinia amylovora)
chain: MKAGIQALNDIGTHRHSSTRSFVNKGDRAMAKEIGQFMDQYPEVFGKPQYQKGPGQEVKTDDKSWAKALSKPDDDGMTPASMEQFNKAKGMIKRPMAGDTGNGNLQARGAGGSSLGIDAMMAGDAINNMALGKLGAA
Question: With B1 as the molecule, how does the “PGE ht>buffer @ 40 μg/ml” value [2] read?
Answer: Its value is 23% @ 40 μg/ml.

Question: What about the “PGE ht>buffer @10 μg/ml” value [2] of the same molecule?
Answer: The value was 21%.

Question: What about the “PGE ht>buffer @20 μg/ml” value [2] of the same molecule?
Answer: Its value is 21%.

Question: What about the “Efficacy of TMV control” value (TMV; listed as 6) of the same molecule?
Answer: The value was 70% and 72%.

B2: Fragment 10: amino acids 1-168 of SEQ ID NO: 23, N-terminal fragment (protein, listed as Erwinia amylovora)
chain: MSLNTSGLGASTMQISIGGAGGNNGLLGTSRQNAGLGGNSALGLGGGNQNDTVNQLAGLLTGMMMMMSMMGGGGLMGGGLGGGLGNGLGGSGGLGEGLSNALNDMLGGSLNTLGSKGGNNTTSTTNSPLDQALGINSTSQNDDSTSGTDSTSDSSDPMQQLLKMFSEI
Question: Which results are given for B2?
Answer: HR titer [1]: 1 µg/mL; PGE ht>buffer @10 μg/ml [2]: 13%; PGE ht>buffer @20 μg/ml [2]: 5%; Efficacy of TMV control (TMV): 69%

B3: Fragment 17: amino acids 105-168 of SEQ ID NO: 23, internal fragment (protein, listed as Erwinia amylovora)
chain: MLGGSLNTLGSKGGNNTTSTTNSPLDQALGINSTSQNDDSTSGTDSTSDSSDPMQQLLKMFSEI
Question: Which “HR elicitation in tobacco (in words)” value [1] does the source give for B3 here?
Answer: The value was “lost its HR activity”.

Question: What about the “PGE ht>buffer @10 μg/ml” value [2] of the same molecule?
Answer: The value was 19%.

Question: What about the “PGE ht>buffer @20 μg/ml” value [2] of the same molecule?
Answer: The value was 16%.

Question: What about the “Efficacy of TMV control” value (TMV) of the same molecule?
Answer: The value was 89%.

B4: Fragment 1: full length Erwinia amylovora hypersensitive response elicitor, amino acids 1-403 of SEQ ID NO: 23, pET28(b) clone, positive control (protein, listed as Erwinia amylovora)
chain: MSLNTSGLGASTMQISIGGAGGNNGLLGTSRQNAGLGGNSALGLGGGNQNDTVNQLAGLLTGMMMMMSMMGGGGLMGGGLGGGLGNGLGGSGGLGEGLSNALNDMLGGSLNTLGSKGGNNTTSTTNSPLDQALGINSTSQNDDSTSGTDSTSDSSDPMQQLLKMFSEIMQSLFGDGQDGTQGSSSGGKQPTEGEQNAYKKGVTDALSGLMGNGLSQLLGNGGLGGGQGGNAGTGLDGSSLGGKGLQNLSGPVDYQQLGNAVGTGIGMKAGIQALNDIGTHRHSSTRSFVNKGDRAMAKEIGQFMDQYPEVFGKPQYQKGPGQEVKTDDKSWAKALSKPDDDGMTPASMEQFNKAKGMIKRPMAGDTGNGNLQARGAGGSSLGIDAMMAGDAINNMALGKLGAA
Question: For B4, which HR titer [1] is on record?
Answer: The HR titer was 5 to 7 µg/mL.

Question: What about the “PGE ht>buffer @10 μg/ml” value [2] of the same molecule?
Answer: The value was 12%.

Question: And the “PGE ht>buffer @20 μg/ml” value [2]?
Answer: Its value is 11%.

Question: What about the “Efficacy of TMV control” value (TMV; listed as 1 (+control)) of the same molecule?
Answer: The value was 84% and 72%.

B5: Fragment 9: amino acids 1-104 of SEQ ID NO: 23, N-terminal fragment (protein, listed as Erwinia amylovora)
chain: MSLNTSGLGASTMQISIGGAGGNNGLLGTSRQNAGLGGNSALGLGGGNQNDTVNQLAGLLTGMMMMMSMMGGGGLMGGGLGGGLGNGLGGSGGLGEGLSNALND
Question: What does the source list for B5?
Answer: HR titer [1]: 3 µg/mL; PGE ht>buffer @10 μg/ml [2]: 4%; PGE ht>buffer @20 μg/ml [2]: 8%; Efficacy of TMV control (TMV): 82%

B6: Fragment 13: amino acids 76-209 of SEQ ID NO: 23, internal fragment (protein, listed as Erwinia amylovora)
chain: MGGGLGGGLGNGLGGSGGLGEGLSNALNDMLGGSLNTLGSKGGNNTTSTTNSPLDQALGINSTSQNDDSTSGTDSTSDSSDPMQQLLKMFSEIMQSLFGDGQDGTQGSSSGGKQPTEGEQNAYKKGVTDALSGL
Question: Which HR titer [1] does the source give for B6 here?
Answer: The HR titer was 5 µg/mL.

Question: What about the “PGE ht>buffer @ μg/ml” value ([2]; concentration figure missing in the cell) of the same molecule?
Answer: The value was 18% @ μg/ml.

Question: And the “PGE ht>buffer @10 μg/ml” value [2]?
Answer: Its value is 7%.

Question: What about the “PGE ht>buffer @20 μg/ml” value [2] of the same molecule?
Answer: The value was 4%.

Question: And the “enhanced growth at 60 μg/ml” value ([2]; tomato, 60 μg/ml)?
Answer: The value was 18%.

Question: What about the “Efficacy of TMV control” value (TMV; listed as 13) of the same molecule?
Answer: Its value is 44% and 84%.

B7: Fragment 15: amino acids 105-209 of SEQ ID NO: 23, internal fragment (protein, listed as Erwinia amylovora)
chain: MLGGSLNTLGSKGGNNTTSTTNSPLDQALGINSTSQNDDSTSGTDSTSDSSDPMQQLLKMFSEIMQSLFGDGQDGTQGSSSGGKQPTEGEQNAYKKGVTDALSGL
Question: How did the HR titer [1] turn out when B7 was run?
Answer: The HR titer was 5 to 10 µg/mL.

Question: What about the “PGE ht>buffer @10 μg/ml” value [2] of the same molecule?
Answer: Its value is 14%.

Question: What about the “PGE ht>buffer @20 μg/ml” value [2] of the same molecule?
Answer: Its value is 19%.

Question: What about the “Efficacy of TMV control” value (TMV; listed as 15) of the same molecule?
Answer: The value was 57% and 67%.

B8: Fragment 4: amino acids 169-403 of SEQ ID NO: 23, C-terminal fragment (protein, listed as Erwinia amylovora)
chain: MQSLFGDGQDGTQGSSSGGKQPTEGEQNAYKKGVTDALSGLMGNGLSQLLGNGGLGGGQGGNAGTGLDGSSLGGKGLQNLSGPVDYQQLGNAVGTGIGMKAGIQALNDIGTHRHSSTRSFVNKGDRAMAKEIGQFMDQYPEVFGKPQYQKGPGQEVKTDDKSWAKALSKPDDDGMTPASMEQFNKAKGMIKRPMAGDTGNGNLQARGAGGSSLGIDAMMAGDAINNMALGKLGAA
Question: What does the source list for B8?
Answer: HR elicitation in tobacco (in words) [1]: did not elicit HR; PGE ht>buffer @10 μg/ml [2]: 9%; PGE ht>buffer @20 μg/ml [2]: 12%; Efficacy of TMV control (TMV; listed as 4): 64% and 79%

B9: Fragment 7: amino acids 343-403 of SEQ ID NO: 23, smallest C-terminal protein (protein, listed as Erwinia amylovora)
chain: MTPASMEQFNKAKGMIKRPMAGDTGNGNLQARGAGGSSLGIDAMMAGDAINNMALGKLGAA
Question: For B9, which “PGE ht>buffer @10 μg/ml” value [2] is on record?
Answer: Its value is 7%.

Question: And the “PGE ht>buffer @20 μg/ml” value [2]?
Answer: Its value is 7%.

B10: Fragment 5: amino acids 210-403 of SEQ ID NO: 23, C-terminal fragment (protein, listed as Erwinia amylovora)
chain: MGNGLSQLLGNGGLGGGQGGNAGTGLDGSSLGGKGLQNLSGPVDYQQLGNAVGTGIGMKAGIQALNDIGTHRHSSTRSFVNKGDRAMAKEIGQFMDQYPEVFGKPQYQKGPGQEVKTDDKSWAKALSKPDDDGMTPASMEQFNKAKGMIKRPMAGDTGNGNLQARGAGGSSLGIDAMMAGDAINNMALGKLGAA
Question: For B10, which “HR elicitation in tobacco (in words)” value [1] is on record?
Answer: The value was “did not elicit HR at a detectable level”.

Question: And the “PGE ht>buffer @ 40 μg/ml” value [2]?
Answer: The value was 16% @ 40 μg/ml.

Question: What about the “PGE ht>buffer @10 μg/ml” value [2] of the same molecule?
Answer: Its value is 13%.

Question: And the “PGE ht>buffer @20 μg/ml” value [2]?
Answer: Its value is 14%.

Question: What about the “Efficacy of TMV control” value (TMV; listed as 5) of the same molecule?
Answer: The value was 77% and 78%.

B11: Fragment 14: amino acids 76-168 of SEQ ID NO: 23, internal fragment (protein, listed as Erwinia amylovora)
chain: MGGGLGGGLGNGLGGSGGLGEGLSNALNDMLGGSLNTLGSKGGNNTTSTTNSPLDQALGINSTSQNDDSTSGTDSTSDSSDPMQQLLKMFSEI
Question: B11 was tested. Which “HR elicitation in tobacco (in words)” value [1] did it give?
Answer: The value was “lost its HR activity”.

Question: And the “PGE ht>buffer @10 μg/ml” value [2]?
Answer: Its value is 18%.

Question: And the “PGE ht>buffer @20 μg/ml” value [2]?
Answer: The value was 20%.

Question: What about the “Efficacy of TMV control” value (TMV; listed as 14) of the same molecule?
Answer: Its value is 83% and 87%.
